Reference: article PMC4861830, “Isolation and Characterization of Three New Monoterpene Synthases from Artemisia annua” (Frontiers in Plant Science, 2016)

B1: AaTPS2 (Artemisia annua) (protein)
chain: VRRTANYEPTLWSYDHIQSLSSKYTGEEYAARANILKNSVKRLLGEVENSPSILELVNDLQRLGIYYHFEDEIRNALEMIYYKYYKTPDKWGKMDLNLTALGFRLLRQHGYQVPQEIFQNFLDNAQNLKPHLLEEIAGMLNLYEASYHAFEDETILDNARAFTTKYLKENLDKIDGHILSLVSHALEFPLHWRVPRVEAKWYIEVYEKKNGMNHILIELAKLDFDMVQAIHLEDLKHASRWWRNTNWDKKLSFARDRLVENFLWTIGFNYLPQFSHGRRTLTKVNALITTIDDVYDVFGTLDEIEQFTDATNRWDINSIEELPDYMKICFLGFYNTINEITYNALTNKRFIILPYLKKAWGDLFKSFVVEANWYQSGHIPTLEEYLENGCISISGPVILMHVHFITSISSAEEIMQCMEISKDIVRYSSLIFRLTDDLGTSSGEMERGDNPKSLQCYMHETGASEDEARIYMKSLIGETWKKLNKERTHASSDITREFIDFATNLVRMAQFMYGEGDVHGRPDVTKSHVLSLLFNPIQEI
notes: N-terminal 46-residue plastid signal peptide removed (before RR motif; full length 586 residues); pET-32a fusion tag kept; E. coli BL21(DE3); Ni-NTA
B2: AaTPS6 (Artemisia annua) (protein)
chain: GRRSANYEPSLWSFDHVQSLSSKYTGKNYVSRADSLKKIVKTMIHEVGNPSTALELVDDLQRLGIWYHFEDEISNVLEMIYRDFYDNEDRCSKMDMNFKALSFRLLRQHGYHVPQEIFHNFKEKTQNLKPYLHEDMVVMLNIYEASYYSYEDESIMDDARDFTAKYLKENHDSIDESISSLVSHALEFPLHWRIPREEAKWFIEFYEKRSGRNPTLIELAKLDFNMVQSIHLEDLKHASRWWRNTCWDKELPFARDRLMENFLWTVGVNYLPRFSLGRRTLTKVNAMITTIDDVYDVFGTIDELEKFTEVTNRWDINAVEELPDYMQICFIAFYNSINEIAYNTLTDTKFLILQYLKKGWVDLCNSYLKEAQWYESGYVPTLEEYLENAYVSISAPVILTHVNFLTTITSKEEILQFMETSDNIVRYSSLILRLADDLGTSSLEMARGDVPKSIQCYMHESGASEDEARMHIKDLILETWKKFNKEREHVKSKIAREFTYCAMNLGRMAQFMYREGDGHGHLSDVTKSHVLSWLINPIQGM
notes: N-terminal 46-residue plastid signal peptide removed (before RR motif; full length 587 residues); pET-32a fusion tag kept; E. coli BL21(DE3); Ni-NTA
B3: AaTPS5 (Artemisia annua) (protein)
chain: IRRSAGYPPSLWPYERIQAINSIYTGEKYASRLETLKEEVRNMIYKENEKAENPLSTLNLVDDLQRLGIWYHFVDDINNVLDNVYNKYYKSPEKWNTLDLNLKALGFRLLRHNGYHITQDIFEDIQDETRIMGHTIEDTLGLLNLYEASYHSFEDENILDEARAFTKKYLQGSLGKIDDQYLSSLTSRALDMPLHWRIARVETIWFMEAYEKRSGMNPTVLDLAKLDFNMVQAVHQEDLKYASRWWRTTKWDDKLSFARDRLVENYMWTIGNSYRPQFTLLRRILTKVFAIITTVDDVYDVHGTLDELERFTDVISRWNIYAIEELPDYMKICFLGFYNSVNDMAYTTLTDTGFFILPYLQKAWEDLCKAYLVEARWYHTKYMPTFKEYLDIAEVSISVPLMLTHISFVMNVCSTEEVIQSMDKIKNLIRYSSQILRLADDLGTSSDEMARGDTPKSIQCYMHETGATEEEARAHVRSLIIKVWQKLNKERAGLKTTYLKEFGECAANFGRMAQFMYQVADGHGHNIDLTEAYVLSLVVNPIQGV
notes: N-terminal 57-residue plastid signal peptide removed (before RR motif; full length 602 residues); pET-32a fusion tag kept; E. coli BL21(DE3); Ni-NTA

Substrate: CC(C)=CCC/C(C)=C/COP(=O)(O)OP(=O)(O)O
Assay: purified protein
Assay type: biochemical, Artemisia annua
Settings: Mg2+ (5 mM MgCl2), 25 mM HEPES pH 7.0, 5 mM DTT, 30 °C, GPP 3-100 μM
[1] = Table 1 prints 19.74 (text and table disagree; printed kcat/Km 7.66 × 10^4 fits 19.47)

Row | Protein | Km [µM] | kcat [s⁻¹] | kcat/Km [M⁻¹ s⁻¹] | Km [1] [µM] | kcat [1] [s⁻¹]
1 | B1 | 8.25 | 0.52 | 63100 | – | –
2 | B2 | 17.70 | 4.46 | 252000 | – | –
3 | B3 | – | – | – | 19.47 | 1.49
